Laboratory results published in patent US20240101708A1 (Genentech, published 2024).
Values joined by “and” are separate entries in the source; they are usually repeats but may differ in a detail not shown here. Identical values can stand only once.

B1: RNF43-145 (antibody, V domains shown)
VH: EVQLKESGPGLVQPSQTLSLTCTVSGFSLTDYSVYWVRQPPGKGLEWMGVMWSGGTTAYNSALKSRLSISRDTSKSQVFLKMNSLQTEDTAIYYCTRGGKYDGTYYYGWYFDFWGPGTMVTVSS
VL: DVVLTQSPATLSVTPGERISLSCRASESVDTYLYWYQQKPNESPRLLIKYASQSISGIPSRFSGSGSGTDFTLSINGVELEDLSIYYCQQGNSLPLTFGSGTKLEIK
notes: Rat clone; VH/VL only
B2: RNF43-61 (antibody, V domains shown)
VH: EVQLVESGGDLVQPGRSLTLSCAASGFIFSDYYMAWVRQAPKKGLEWVASITYEGSSTYYGDSVKGRFTISRDNTKSTLYLLMNSLRSDDSATYYCARHGAHYTYNYAYYFDYWGQGVMVTVSS
VL: DIMLTQSPTTLSVIPGENISLSCRASQSVGTNLHWYQQKPSESPRVLINYASQSISGIPSRFSGSGSGTDFTLNINRVEPEDSSVYYCQQSKSWPFTFGSGTKLEIK
notes: Rat clone; VH/VL only
B3: RNF43-74 (antibody, V domains shown)
VH: EVQLVESGGDLVQPGRSLTLSCAASGFTFSDYYMAWVRQAPKKGLEWVASITYEGSSTYYGDSVKGRFTISRDNTKSTLYLLMNSLRSDDTATYYCARHGAHYTYNYAYYFDYWGQGVMVTVSS
VL: DIMLTQSPTTLSVIPGENISLSCRASQSVGTNLHWYQQKPSESPRVLINYASQSISGIPSRFSGSGSGTDFTLNINRVEPEDSSVYYCQQSKSWPFTFGSGTKLEIK
notes: Rat clone; VH/VL only
B4: RNF43-86 (antibody, V domains shown)
VH: EVQLVESGGGLVQPGRSLKLSCAASGFTFTNYYMAWVRQAPTKGLEWVASISPSGDTTYYPDSVKGRFTVSRDNAKSTQYLQMDNLRSEDTATYYCARDAYTYYGYKGWYFDFWGPGTMVTVSS
VL: QFVLTQPNSVSTNLGSAVKLSCKRSTDDIGSNYVNWYQQHEGRSPTTMIYRDDKRPDGVPDRFSGSIDRSSNSALLTINNVQTEDEADYFCQSYSSGIYIFGGGTKLTVL
notes: Rat clone; VH/VL only
B5: RNF43-53 (antibody, V domains shown)
VH: EVQLVESGGGLVQPGRSLKLSCGASGFSFSTYYMVWVRQAPTKGLEWVASISPNGGNTYYPDSVKGRFTISRDNAKSTQYLQMDSLRSEDTATYYCATDGSYYYDGYRWLAYWGQGTLVTVSS
VL: QFVLTQPNSVSTNLGSTVKLSCKRSTGNIGSNYVSWYQQHEGRSPTTLIYRDDKRPDGVPDRFSGSIDRSSNSALLTINNVQTEDEAGYFCQSFSSGLFIFGGGTKLTVL
notes: Rat clone; VH/VL only
B6: RNF43-177 (antibody, V domains shown)
VH: QVKLLQSGAALVKPGDSAKMSCKASGYTFTDSIIHWVKQSHGKSLEWIGYINPYSGGIQYNEKFKNKATLTVDKSSSTAYVEFSRLTSEDSAIYYCAREIRGMDAWGQGTSVTVSS
VL: DIVLTQSPATLSVTPGESVSLSCRASQGISTSLHWYQQKSTESPRLLIKYASQSVSGIPSRFSGSGSGTDFTLSINRVESEDFSVYYCQQSYNLPRTFGPGTKLELK
notes: Rat clone; VH/VL only
B7: RNF43-38 (antibody, V domains shown)
VH: EVQLVESGGGLVQPGTSLKISCVASGFTFSDYWMSWVRQTPGKTMEWIGDIKSDGSYTNYAPSLKNRFTISRDNAKSTLYLQMNNVRSEDTATYYCTRDAYRYNYVHYGLDAWGQGASVTVSS
VL: QFVLTQPNSVSANLGSTVKLSCNRSTGNIGSNYVSWYQQHEGRSPTTMLYRDGKRPDGIPDRFSGSIDGSSNSALLTINNVQTEDEADYFCQSYSSGIKYIFGGGTKLTVL
notes: Rat clone; VH/VL only
B8: RNF43-56 (antibody, V domains shown)
VH: EVQLVESGGGLVQPGTSLKISCVASGFTFSDYWMSWVRQTPGRTMEWIGDIKYDGSYTNYAPSLKNRFTISRDNAKSILYLQMNNVRSEDTATYYCTRDAYGYNYVHYGLDAWGQGASVTVSS
VL: QFVLTQPNSVSSNLGSTVKLSCNRSTGNIGSNYVSWYQQHEGRSPTTMIYRDDKRPDGIPDRFSGSIDGSSNSALLTINNVQTEDEADYFCQSYSSDIKYIFGGGTKLTVL
notes: Rat clone; VH/VL only
B9: RNF43-71 (antibody, V domains shown)
VH: QVKLLQSGAALVKPGDSVKMSCKASGYTFTDHIIHWVKQSHGKSLEWIGYINPYSGSTNYNEKFKSKATLTVDRSNNTAYMEFSRLTSEDSAIYYCARKNYGGYGVMDAWGQGASVTVSS
VL: DIQMTQSPSLLSASVGDRVTLSCKASQNIYKNLAWHQQKLGEAPKLLIYYANSLQTGIPSRFSGSGFGTDYTLTISSLQPEDVATYFCQQSSSGWTFGGGTKLELK
notes: Rat clone; VH/VL only
B10: RNF43-31 (antibody, V domains shown)
VH: AVQLVESGGGSVQPGRSMRLSCAASGFTFSNYDMTWVRQAPTKGLEWVASITYDGGSTYSRDSVKGRFTISRDNAKSTLYLQMDSLRSEDTATYYCTTDRGRYLPYYFDYWGQGVMVTVSA
VL: DVVLTQTPVSLSVTLGDQASISCRSSQSLEYSDGYSYLEWYLQKPGQSPQLLIYEVSSRFSGVPDRFIGSGSGTDFTLKISRVEPEDLGVYYCFQAIHDPTFGAGTKLELK
notes: Rat clone; VH/VL only
B11: RNF43-41 (antibody, V domains shown)
VH: EVHLVESGGGLVQPGRSVKLSCTASGFTFSYYDMAWVRQAPTKGLEWVASLTYDGSSTYYRDSVKGRFTISRDNAKSTLYLQMDSLRSEDTATYYCTTDRGRYLPYHFDYWGQGVMVTVSS
VL: DVVLTQTPVSLSVTLGDQASISCRSSQSLEYSDGYTYLEWYLQKPGQSPQLLIYEVSTRFSGVPDRFIGSGSGTDFTLKISRVEPEDLGVYYCFQATHDPTFGAGTKLELK
notes: Rat clone; VH/VL only
B12: RNF43-67 (antibody, V domains shown)
VH: AVQLVESGGGSVQPGRSMRLSCAASGFTFSNYDMTWVRQAPTKGLEWVASITSDGGSTYSRDSVKGRFTISRDNAKSTLYLQMDSLRSEDTATYYCTTDRGRYLPYYFDYWGQGVMVTVSA
VL: DVVLTQTPVSLSVTVGDQASISCRSSQSLEYSDGYSYLEWYLQKPGQSPQLLIYEVSSRFSGVPDRFIGSGSGTDFTLKISRVEPEDLGVYYCFQAIHDPTFGAGTKLELK
notes: Rat clone; VH/VL only
B13: RNF43-181 (antibody, V domains shown)
VH: QIQLQQSGAELVKPGSSVKISCKSSAYRFTSNFIHWIRQQPGNGLEWIGWIYPGDGDAENNQKFNGKVILTADKSSSTAYMQLSSLTSEDSAVYFCARGVMTSLWYFDFWGPGTMVTVSS
VL: DVQMTQSPYNLAASPGESVSINCKASKSISKYLAWYQQKPGKTNKLLIYDGSTLQSGIPSRFSGSGSGTDFTLTIRSLEPEDFGLYYCQQHHEQPPTFGSGTKLEIK
notes: Rat clone; VH/VL only
B14: RNF43-80 (antibody, V domains shown)
VH: EVQLVESGGGLVQPGRSLKVSCLASGFNFGDFGMNWIRQAPGKGLEWVSYISSTSGTIYYADTVKGRFTISRDNAKNTLYLQLSSLRSEDTALYYCARPAGRYFDYWGQGVLVTVSS
VL: DIVMTQSPSSLAVSAGETVTIDCKSNQSLLYSGNQKNYLAWYQQKPGQSPKLLIYWTSTRQSGVPDRFIGSGSGTEFTLTISSVQAEDLAIYYCQQYYHTPFTFGSGTKLEIK
notes: Rat clone; VH/VL only
B15: RNF43-196 (antibody, V domains shown)
VH: QVQLQQSGAELVKPGSSVKISCKASGFTFTSNFMHWIKQQPGNGLEWIGWIYPGDGDTDYNQKFNGKATLTADKSSSTAYMELSSLTSEDSAVYFCARAYYGSYWYFDFWGPGTKVTVSS
VL: DVQMTQSPHNLAASPGESVSINCKASKSISKYLAWYQQKPGKVKKLLIYGGSTLQSGIPSRFSGSGSGTDFTLTISSLEPEDFGLYYCQQHNEYPPTFGGGTRLELQ
notes: Rat clone; VH/VL only
B16: RNF43-116 (antibody, V domains shown)
VH: QVQLQQSGAELAKPGSSVKISCKASGYTFTSYYISWIKQTTGQDLEYIGYVNTRSGGTNYNEKFKVKATLTVDNSSSTAFMQLSSLTPDDSAVYYCARGRTDWGQGTLVTVSS
VL: DIQMTQSPSLLSASVGDRVTVNCKASQNIYKNLEWYQQKHGEAPKLLIYYTNNLQTGISSRFSGSGSGTDYTLTISSLQPEDVATYYCFQYNSGYTFGAGTKLELK
notes: Rat clone; VH/VL only
B17: RNF43-104 (antibody, V domains shown)
VH: QVQLKESGPGLVQPSQTLSLTCSVSGFSLTSFHVHWVRQPPGKGLEWMGLMWSNGDTSYNSDLKSRLSISRDTSKSQVFLKMHSLQTEDTATYYCARTDVYHGFGAMDAWGQGTSVTVSS
VL: DIQMTQSPSFLSASLGNSITITCHASQFIKGWLAWYQQKSGNAPELLIYKSSSLHSGVPSRFSGSGSGTDYILTISNLQPEDIATYYCQHYQGFPLTFGSGTKLEIK
notes: Rat clone; VH/VL only
B18: RNF43-130 (antibody, V domains shown)
VH: QVQLVQSGAEVVKPGSSVKISCKASGYTFTGNFIHWIKQQPGNGLEWIGWIYPGDGDTTYNQKFSGKATLTADKSSSTAYMQLSNLTSEDSAVYFCAKWRDLSSDWFAYWGQGTLVTVSS
VL: DIVMTQSPVSLTVSEGEMVTINCKSSQSLLSSGNQKNYLAWYQQKPGQSPRLLIYFTSTRQSGVPDRFIGSGSGTDFTLTISDVQAEDLADYYCLQHYSYPNTFGAGTKLELK
notes: Rat clone; VH/VL only
B19: RNF43-136 (antibody, V domains shown)
VH: QVQLQQSGAELVKPGSSVKISCKASGYTFTSKFMHWIKQQPGSGLEWIGWIYPEHGNTKYNQKFDGKATLTADKSSSTAYMQLSSLTSGDSAVYFCARQSSQGAYAMDAWGQGTSVTVSS
VL: DIQMTQSPVSLSASLGQTVSIECLTSEGIPIDLAWYQQKSGKSPQLLIYAASRSQDGVPSRFSGSGSGTRYSLKISGMQPEDEADYFCQQTYKYPFTFGSGTRLEIK
notes: Rat clone; VH/VL only

The binders below were run against T1, recombinant human RNF43 extracellular domain (human, UniProt Q68DV7 24-197) (assay: SPR Biacore 8K; antibody captured on Protein A; RNF43 ECD analyte; 25 C).
T1 construct: extracellular domain; also called huRNF43; human RNF43 ECD
T1 sequence (looked up): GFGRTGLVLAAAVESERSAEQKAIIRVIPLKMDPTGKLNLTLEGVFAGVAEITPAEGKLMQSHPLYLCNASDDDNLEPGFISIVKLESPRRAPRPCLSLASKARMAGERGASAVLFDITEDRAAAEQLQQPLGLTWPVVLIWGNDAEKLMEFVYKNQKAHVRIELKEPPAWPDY
Method: Antibodies were screened for binding to recombinant human RNF43 and ZNRF3 ECDs using a Biacore® 8 k instrument (GE Life Sciences). Briefly, antibodies diluted to 1 μg/ml in 1×HBSP buffer (Cytiva, BR100368) were captured on a Sensor Chip Protein A (GE Life Sciences) using a flow rate of 10 μl/minute and a contact time of 60 seconds. Binding of recombinant human RNF43 and ZNRF3 extracellular domain to the captured antibodies was analyzed at 25° C. using a single cycle kinetics method with a flow rate of 30 μl/minute, a contact time of 180 seconds and a dissociation time of 600 seconds. The concentration of recombinant human RNF43 and ZNRF3 extracellular domain in the single cycle kinetics were 0, 0.8, 4, 20, and 100 nM. Between cycles, the chip was regenerated using 10 mM Glycine HCl pH 1.5 injected for 30 seconds at 30 μl/minute. Data were evaluated using Biacore 8K Evaluation software (GE Life Sciences). Kinetic constants were obtained using a 1:1 binding model with the parameter RI set to zero. Cell surface ligase antibodies with sub-nanomolar affinities may provide advantages in certain instances, for example, in the degradation efficiency which is correlated with the durability of the ternary complex as shown in FIG. 5D.

Binder	Kd
B1	0.504 nM
B2	0.43 nM
B3	0.35 nM
B4	17.3 nM
B5	3.3 nM
B6	6.47 nM
B7	4.93 nM and 8.66 nM
B8	1.84 nM
B9	0.03 nM
B10	0.13 nM
B11	0.37 nM
B12	0.59 nM
B13	0.0859 nM
B14	0.48 nM
B15	0.114 nM
B16	1.42 nM
B17	9.12 nM
B18	0.134 nM
B19	1.91 nM
